Measured values taken from US20250361282A1 (Bayer, published 2025).
Positions count from the first letter of the chain named.

T1: rat NPR-B (rat, UniProt P16067 17-1047)
T1 sequence (looked up): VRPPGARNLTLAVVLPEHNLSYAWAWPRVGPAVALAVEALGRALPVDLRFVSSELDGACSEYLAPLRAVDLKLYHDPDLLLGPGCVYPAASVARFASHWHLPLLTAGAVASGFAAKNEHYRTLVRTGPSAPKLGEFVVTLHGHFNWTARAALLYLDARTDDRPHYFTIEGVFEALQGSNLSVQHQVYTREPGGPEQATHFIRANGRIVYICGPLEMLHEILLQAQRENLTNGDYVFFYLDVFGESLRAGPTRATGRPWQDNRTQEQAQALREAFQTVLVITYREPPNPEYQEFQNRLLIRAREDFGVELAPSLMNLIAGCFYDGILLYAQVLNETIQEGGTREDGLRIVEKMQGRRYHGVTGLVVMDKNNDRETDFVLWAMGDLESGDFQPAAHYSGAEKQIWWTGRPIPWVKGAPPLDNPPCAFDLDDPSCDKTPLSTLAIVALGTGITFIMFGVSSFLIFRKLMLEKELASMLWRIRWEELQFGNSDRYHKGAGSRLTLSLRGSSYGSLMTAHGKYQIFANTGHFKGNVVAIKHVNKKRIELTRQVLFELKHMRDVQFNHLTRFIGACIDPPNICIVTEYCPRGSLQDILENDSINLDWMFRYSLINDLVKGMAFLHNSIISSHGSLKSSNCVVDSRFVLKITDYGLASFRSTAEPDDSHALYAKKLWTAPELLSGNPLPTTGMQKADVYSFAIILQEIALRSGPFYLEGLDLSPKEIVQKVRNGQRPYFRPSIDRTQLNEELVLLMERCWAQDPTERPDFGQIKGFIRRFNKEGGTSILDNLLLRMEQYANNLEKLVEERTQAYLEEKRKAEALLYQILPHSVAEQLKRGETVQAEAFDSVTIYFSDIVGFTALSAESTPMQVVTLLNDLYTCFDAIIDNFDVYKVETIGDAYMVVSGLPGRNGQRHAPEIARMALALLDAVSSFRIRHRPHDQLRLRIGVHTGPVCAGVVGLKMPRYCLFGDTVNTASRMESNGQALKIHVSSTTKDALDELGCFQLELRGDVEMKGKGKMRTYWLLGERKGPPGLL

T2: human NPRA (hNPRA) (human, UniProt P16066 33-1061)
T2 sequence (looked up): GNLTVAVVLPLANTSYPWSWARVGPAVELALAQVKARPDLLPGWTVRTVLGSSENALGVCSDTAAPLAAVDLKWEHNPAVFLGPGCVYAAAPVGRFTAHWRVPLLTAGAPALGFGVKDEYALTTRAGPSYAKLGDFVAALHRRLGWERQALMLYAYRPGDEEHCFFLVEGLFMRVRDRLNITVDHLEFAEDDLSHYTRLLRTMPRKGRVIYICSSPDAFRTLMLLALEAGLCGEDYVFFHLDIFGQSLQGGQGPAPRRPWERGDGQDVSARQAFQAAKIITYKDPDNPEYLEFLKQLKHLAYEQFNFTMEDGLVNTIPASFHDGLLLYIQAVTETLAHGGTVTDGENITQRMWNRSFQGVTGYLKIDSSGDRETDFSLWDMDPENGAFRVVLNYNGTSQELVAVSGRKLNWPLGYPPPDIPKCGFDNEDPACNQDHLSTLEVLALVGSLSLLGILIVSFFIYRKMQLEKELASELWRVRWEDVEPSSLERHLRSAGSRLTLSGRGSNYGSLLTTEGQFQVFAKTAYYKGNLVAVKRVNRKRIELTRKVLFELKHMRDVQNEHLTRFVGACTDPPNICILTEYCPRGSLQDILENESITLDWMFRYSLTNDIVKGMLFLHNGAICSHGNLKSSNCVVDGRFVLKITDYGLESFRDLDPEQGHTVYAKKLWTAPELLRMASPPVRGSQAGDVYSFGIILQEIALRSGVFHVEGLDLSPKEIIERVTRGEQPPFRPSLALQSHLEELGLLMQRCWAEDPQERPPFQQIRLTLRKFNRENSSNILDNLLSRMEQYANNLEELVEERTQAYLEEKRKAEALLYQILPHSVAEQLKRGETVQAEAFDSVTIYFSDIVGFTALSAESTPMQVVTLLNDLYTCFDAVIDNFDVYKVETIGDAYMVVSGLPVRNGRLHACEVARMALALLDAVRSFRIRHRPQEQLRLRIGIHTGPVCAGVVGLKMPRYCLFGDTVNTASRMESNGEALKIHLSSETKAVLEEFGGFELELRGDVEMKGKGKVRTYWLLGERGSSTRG

T3: rat NPR-A (rat, UniProt P18910 29-1057)
T3 sequence (looked up): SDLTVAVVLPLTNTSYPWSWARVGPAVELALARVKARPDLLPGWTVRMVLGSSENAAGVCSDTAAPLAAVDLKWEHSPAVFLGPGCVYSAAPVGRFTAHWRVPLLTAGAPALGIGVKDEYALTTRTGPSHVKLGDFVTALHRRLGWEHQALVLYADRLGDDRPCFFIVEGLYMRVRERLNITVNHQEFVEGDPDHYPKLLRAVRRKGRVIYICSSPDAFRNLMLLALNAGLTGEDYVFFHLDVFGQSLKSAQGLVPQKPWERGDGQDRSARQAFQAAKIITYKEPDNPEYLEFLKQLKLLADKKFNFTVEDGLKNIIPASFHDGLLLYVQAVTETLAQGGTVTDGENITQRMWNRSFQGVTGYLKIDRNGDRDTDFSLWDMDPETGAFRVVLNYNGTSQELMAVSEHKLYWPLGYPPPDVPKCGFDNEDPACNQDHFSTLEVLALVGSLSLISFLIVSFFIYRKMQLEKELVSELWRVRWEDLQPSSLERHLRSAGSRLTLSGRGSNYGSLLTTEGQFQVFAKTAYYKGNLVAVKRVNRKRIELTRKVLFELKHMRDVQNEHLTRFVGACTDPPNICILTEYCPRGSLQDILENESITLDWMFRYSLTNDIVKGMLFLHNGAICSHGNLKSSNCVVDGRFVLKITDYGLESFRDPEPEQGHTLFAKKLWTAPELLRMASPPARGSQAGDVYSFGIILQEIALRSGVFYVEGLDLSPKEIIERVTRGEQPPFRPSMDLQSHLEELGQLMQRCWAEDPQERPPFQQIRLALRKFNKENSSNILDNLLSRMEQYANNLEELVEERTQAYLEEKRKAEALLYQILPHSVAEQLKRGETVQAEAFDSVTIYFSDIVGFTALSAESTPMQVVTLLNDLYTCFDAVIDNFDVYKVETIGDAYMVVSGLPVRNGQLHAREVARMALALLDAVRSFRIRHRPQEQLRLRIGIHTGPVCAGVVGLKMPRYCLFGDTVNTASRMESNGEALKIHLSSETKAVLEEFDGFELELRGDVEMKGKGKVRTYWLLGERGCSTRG

B1: TPP-9465 (antibody)
heavy: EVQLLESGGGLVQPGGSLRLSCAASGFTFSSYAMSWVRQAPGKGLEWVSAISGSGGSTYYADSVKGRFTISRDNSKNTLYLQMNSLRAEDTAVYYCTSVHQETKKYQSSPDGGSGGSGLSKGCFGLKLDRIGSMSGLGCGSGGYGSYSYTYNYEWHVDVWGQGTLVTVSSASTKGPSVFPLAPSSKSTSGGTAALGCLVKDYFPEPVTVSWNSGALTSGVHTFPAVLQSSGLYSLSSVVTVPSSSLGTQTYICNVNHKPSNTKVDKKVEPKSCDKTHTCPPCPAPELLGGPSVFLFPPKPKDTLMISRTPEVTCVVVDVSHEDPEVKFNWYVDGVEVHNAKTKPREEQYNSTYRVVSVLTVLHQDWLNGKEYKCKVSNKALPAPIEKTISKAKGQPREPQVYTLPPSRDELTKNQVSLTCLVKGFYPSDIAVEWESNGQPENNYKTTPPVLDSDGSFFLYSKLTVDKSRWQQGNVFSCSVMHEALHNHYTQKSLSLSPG
light: QSVLTQPPSVSGAPGQRVTISCTGSSSNIGAGYDVHWYQQLPGTAPKLLIYGNSNRPSGVPDRFSGSKSGTSASLAITGLQAEDEADYYCQSYDSSLSGVVFGGGTKLTVLGQPKAAPSVTLFPPSSEELQANKATLVCLISDFYPGAVTVAWKADSSPVKAGVETTTPSKQSNNKYAASSYLSLTPEQWKSHRSYSCQVTHEGSTVEKTVAPTECS
B2: TPP-12377 (antibody)
heavy: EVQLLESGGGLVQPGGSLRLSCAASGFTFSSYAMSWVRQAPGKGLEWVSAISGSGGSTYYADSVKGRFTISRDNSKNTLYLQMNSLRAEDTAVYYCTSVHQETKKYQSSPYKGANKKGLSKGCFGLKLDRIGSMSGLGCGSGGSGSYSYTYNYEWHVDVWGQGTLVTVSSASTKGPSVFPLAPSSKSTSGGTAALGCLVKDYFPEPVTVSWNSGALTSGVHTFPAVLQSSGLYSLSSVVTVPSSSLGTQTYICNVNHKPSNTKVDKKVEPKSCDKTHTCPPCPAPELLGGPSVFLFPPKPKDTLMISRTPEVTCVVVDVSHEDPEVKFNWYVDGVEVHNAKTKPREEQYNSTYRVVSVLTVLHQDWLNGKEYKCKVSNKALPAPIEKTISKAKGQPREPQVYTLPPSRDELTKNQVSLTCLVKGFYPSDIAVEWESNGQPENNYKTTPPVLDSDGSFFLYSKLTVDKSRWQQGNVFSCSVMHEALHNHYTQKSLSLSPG
light: B1 light
B3: TPP-12897 (antibody)
heavy: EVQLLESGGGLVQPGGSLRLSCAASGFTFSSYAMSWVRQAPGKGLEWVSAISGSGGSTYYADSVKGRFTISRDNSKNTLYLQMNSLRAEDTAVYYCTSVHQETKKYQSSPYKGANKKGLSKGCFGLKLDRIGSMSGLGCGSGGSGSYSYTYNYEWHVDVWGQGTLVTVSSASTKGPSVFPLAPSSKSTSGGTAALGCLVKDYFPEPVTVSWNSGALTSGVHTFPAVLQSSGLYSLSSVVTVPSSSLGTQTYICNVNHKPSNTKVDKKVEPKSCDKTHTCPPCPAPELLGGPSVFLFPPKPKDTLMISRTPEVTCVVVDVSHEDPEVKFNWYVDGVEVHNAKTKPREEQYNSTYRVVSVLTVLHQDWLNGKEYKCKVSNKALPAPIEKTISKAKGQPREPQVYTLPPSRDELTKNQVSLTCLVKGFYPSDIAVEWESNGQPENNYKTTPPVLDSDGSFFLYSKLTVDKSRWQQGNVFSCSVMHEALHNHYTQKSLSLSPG
light: B1 light with S98D
B4: TPP-5661 (antibody)
heavy: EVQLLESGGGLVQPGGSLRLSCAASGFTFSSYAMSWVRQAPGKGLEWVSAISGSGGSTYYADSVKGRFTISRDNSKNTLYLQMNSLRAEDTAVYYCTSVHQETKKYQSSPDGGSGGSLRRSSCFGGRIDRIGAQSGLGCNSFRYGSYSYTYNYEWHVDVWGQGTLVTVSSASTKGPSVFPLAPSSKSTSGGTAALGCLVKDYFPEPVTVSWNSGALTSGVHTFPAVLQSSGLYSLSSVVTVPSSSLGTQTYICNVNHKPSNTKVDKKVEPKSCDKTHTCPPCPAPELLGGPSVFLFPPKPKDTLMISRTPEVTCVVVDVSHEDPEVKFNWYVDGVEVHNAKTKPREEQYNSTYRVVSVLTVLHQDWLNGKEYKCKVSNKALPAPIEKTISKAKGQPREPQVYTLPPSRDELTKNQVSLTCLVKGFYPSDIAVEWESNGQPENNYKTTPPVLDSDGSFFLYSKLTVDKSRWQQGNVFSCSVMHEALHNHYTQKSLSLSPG
light: B1 light
B5: TPP-11154 (antibody, V domains shown)
VH: EVQLLESGGGLVQPGGSLRLSCAASGFTFSSYAMSWVRQAPGKGLEWVSAISGSGGSTYYADSVKGRFTISRDNSKNTLYLQMNSLRAEDTAVYYCTSVHQETKKYQSSPDGGSGGGSYSYTYNYEWHVDVWGQGTLVTVSS
VL: QSVLTQPPSVSGAPGQRVTISCTGSSSNIGAGYDVHWYQQLPGTAPKLLIYGNSNRPSGVPDRFSGSKSGTSASLAITGLQAEDEADYYCQSYDSSLSGVVFGGGTKLTVLG
B6: TPP-11155 (antibody, V domains shown)
VH: EVQLLESGGGLVQPGGSLRLSCAASGFTFSSYAMSWVRQAPGKGLEWVSAISGSGGSTYYADSVKGRFTISRDNSKNTLYLQMNSLRAEDTAVYYCTSVHQETKKYQSSPDGGSYSYTYNYEWHVDVWGQGTLVTVSS
VL: B5 VL
B7: TPP-9902 (antibody)
heavy: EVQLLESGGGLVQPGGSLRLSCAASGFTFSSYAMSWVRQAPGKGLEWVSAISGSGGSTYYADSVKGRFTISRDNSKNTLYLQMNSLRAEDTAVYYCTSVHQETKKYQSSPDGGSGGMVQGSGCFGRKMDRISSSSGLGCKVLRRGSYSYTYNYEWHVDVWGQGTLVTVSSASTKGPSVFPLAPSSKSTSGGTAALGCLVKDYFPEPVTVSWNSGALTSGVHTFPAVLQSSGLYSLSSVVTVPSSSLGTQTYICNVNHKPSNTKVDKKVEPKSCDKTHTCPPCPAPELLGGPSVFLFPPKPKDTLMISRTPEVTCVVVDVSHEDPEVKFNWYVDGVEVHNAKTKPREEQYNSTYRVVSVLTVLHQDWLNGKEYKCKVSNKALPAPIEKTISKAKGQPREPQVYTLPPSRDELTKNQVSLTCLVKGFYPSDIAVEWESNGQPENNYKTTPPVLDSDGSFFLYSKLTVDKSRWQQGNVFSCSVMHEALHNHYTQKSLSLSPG
light: B1 light
B8: TPP-11153 (antibody, V domains shown)
VH: EVQLLESGGGLVQPGGSLRLSCAASGFTFSSYAMSWVRQAPGKGLEWVSAISGSGGSTYYADSVKGRFTISRDNSKNTLYLQMNSLRAEDTAVYYCTSVHQETKKYQSSPDGGSGGSGGGSYSYTYNYEWHVDVWGQGTLVTVSS
VL: B5 VL

Key:
Assay in all cases: cell-based or functional assay
rat NPR-B = target: T1, rat NPR-B
human NPRA (hNPRA) = target: T2, human NPRA (hNPRA)
rat NPR-A = target: T3, rat NPR-A

Row | Binder | EC50, luminescence signal of rat NPR-B reporter cells (rat NPR-B) | EC50, fluorescence signal of rat NPR-A / CNGA2 (cGMP biosensor) / GCaMP6 CHO reporter cells (rat NPR-A) | EC50 on rNPRA reporter cells (rat NPR-A) | other results
1 | B1 | 5.2 nM |  |  | 
2 | B2 | 4.1 nM |  |  | 
3 | B3 | 10 nM |  |  | 
4 | B4 |  | 17 nM |  | logEC50, cGMP quantification assay (HTRF), stable hNPRA-CHO k1 cells, isolated compound sample (human NPRA (hNPRA)): -8.8; logEC50, cGMP quantification assay (HTRF), stable hNPRA-CHO k1 cells, purified compound sample, average of experiments (human NPRA (hNPRA)): -9.2; logEC50, cGMP quantification assay (HTRF), transient hNPRA-HEK293 cells, purified compound sample, average of three experiments (human NPRA (hNPRA)): -9
5 | B5 |  | 7 nM | < 20 nM | 
6 | B6 |  | 12 nM | < 20 nM | 
7 | B7 |  | 2300 nM | > 1000 nM | 
8 | B8 |  | > 1900 nM | > 1000 nM | 
